The source of these data is PMC8183676 (Molecular cell, 2020).

The target of data set [1] is T1, full-length MDA5, fluorescein-labelled (human, UniProt Q9BYX4 1-1025, fluorescein-conjugated peptide (LPETGG) joined to the N-terminus with sortase A).
T1 sequence (looked up): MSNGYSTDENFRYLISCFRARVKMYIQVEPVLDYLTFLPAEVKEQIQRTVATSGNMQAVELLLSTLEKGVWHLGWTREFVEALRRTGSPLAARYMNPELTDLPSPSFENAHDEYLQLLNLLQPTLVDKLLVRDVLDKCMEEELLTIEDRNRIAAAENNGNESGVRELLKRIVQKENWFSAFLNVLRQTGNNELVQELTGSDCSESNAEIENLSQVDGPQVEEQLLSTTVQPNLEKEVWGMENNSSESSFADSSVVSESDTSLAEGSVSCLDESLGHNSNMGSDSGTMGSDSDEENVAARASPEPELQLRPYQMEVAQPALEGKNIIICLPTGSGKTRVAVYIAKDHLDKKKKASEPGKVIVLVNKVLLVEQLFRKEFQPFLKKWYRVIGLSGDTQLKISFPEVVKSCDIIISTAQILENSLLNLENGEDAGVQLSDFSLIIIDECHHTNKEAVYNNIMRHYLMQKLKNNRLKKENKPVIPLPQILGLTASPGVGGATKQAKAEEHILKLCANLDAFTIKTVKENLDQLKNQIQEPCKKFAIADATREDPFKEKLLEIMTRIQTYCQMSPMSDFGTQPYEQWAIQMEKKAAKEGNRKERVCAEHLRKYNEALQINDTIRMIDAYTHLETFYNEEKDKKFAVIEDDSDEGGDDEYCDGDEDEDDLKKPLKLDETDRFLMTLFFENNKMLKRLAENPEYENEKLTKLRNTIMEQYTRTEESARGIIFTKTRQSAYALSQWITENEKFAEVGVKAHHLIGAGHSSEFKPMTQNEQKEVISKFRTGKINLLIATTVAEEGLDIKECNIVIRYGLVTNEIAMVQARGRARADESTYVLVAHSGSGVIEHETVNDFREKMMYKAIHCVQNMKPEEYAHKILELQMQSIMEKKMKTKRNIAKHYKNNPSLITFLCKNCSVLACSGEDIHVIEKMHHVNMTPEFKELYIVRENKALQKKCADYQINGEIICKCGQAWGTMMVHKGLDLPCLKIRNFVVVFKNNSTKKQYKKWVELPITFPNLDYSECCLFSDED
The data set can be described thus: native gel or EMSA. (A gel shift assay detects complexes by their altered migration in electrophoresis.)

The target in data set [2] is T2, MDA5ΔN, fluorescein-labelled (human, UniProt Q9BYX4 287-1025, fluorescein-conjugated peptide (LPETGG) joined to the N-terminus with sortase A).
T2 sequence (looked up): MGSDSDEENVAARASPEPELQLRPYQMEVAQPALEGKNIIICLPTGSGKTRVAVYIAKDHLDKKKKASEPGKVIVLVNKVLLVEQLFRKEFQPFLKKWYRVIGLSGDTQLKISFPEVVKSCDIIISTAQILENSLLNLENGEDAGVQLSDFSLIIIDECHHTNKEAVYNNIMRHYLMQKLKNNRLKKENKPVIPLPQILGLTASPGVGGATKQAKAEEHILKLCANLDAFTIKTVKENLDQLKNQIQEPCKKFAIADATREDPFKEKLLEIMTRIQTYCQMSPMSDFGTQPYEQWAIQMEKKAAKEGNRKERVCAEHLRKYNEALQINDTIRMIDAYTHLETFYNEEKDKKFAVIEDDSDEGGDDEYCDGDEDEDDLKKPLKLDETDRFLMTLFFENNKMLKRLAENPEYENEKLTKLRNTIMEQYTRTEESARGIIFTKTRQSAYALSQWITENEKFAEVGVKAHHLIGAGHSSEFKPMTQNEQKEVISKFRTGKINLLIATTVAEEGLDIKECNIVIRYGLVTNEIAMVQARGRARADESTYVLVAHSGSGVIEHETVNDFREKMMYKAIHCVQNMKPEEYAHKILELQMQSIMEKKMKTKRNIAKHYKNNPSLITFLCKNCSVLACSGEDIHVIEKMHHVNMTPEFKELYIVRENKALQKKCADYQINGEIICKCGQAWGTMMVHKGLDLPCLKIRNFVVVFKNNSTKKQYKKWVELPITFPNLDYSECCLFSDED
Nature of the data set: native gel or EMSA.

Data set [3] concerns the target T3, MDA5ΔN (human, UniProt Q9BYX4 287-1025).
T3 sequence (looked up): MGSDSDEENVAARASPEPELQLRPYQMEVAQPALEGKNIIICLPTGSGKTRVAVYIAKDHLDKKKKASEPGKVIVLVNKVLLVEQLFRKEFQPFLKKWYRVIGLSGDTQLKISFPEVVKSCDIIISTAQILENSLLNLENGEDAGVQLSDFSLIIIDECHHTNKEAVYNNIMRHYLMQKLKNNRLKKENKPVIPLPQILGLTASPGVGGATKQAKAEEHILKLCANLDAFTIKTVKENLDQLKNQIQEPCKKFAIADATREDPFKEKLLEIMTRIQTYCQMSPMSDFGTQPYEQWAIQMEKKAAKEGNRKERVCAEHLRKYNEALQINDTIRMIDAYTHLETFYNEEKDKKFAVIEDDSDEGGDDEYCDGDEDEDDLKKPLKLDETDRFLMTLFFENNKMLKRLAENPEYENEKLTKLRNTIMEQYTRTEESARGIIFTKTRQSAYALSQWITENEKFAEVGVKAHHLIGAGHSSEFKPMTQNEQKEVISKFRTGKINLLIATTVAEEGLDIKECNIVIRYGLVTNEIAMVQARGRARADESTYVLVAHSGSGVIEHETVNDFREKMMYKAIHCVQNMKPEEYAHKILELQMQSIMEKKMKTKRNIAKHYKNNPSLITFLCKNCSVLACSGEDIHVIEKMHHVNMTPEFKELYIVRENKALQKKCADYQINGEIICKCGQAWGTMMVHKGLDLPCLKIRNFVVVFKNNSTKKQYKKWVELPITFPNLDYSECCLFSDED
Nature of the data set: native gel or EMSA.

In data set [4] the target is T4, LGP2 (human, UniProt Q96C10 1-678).
T4 sequence (looked up): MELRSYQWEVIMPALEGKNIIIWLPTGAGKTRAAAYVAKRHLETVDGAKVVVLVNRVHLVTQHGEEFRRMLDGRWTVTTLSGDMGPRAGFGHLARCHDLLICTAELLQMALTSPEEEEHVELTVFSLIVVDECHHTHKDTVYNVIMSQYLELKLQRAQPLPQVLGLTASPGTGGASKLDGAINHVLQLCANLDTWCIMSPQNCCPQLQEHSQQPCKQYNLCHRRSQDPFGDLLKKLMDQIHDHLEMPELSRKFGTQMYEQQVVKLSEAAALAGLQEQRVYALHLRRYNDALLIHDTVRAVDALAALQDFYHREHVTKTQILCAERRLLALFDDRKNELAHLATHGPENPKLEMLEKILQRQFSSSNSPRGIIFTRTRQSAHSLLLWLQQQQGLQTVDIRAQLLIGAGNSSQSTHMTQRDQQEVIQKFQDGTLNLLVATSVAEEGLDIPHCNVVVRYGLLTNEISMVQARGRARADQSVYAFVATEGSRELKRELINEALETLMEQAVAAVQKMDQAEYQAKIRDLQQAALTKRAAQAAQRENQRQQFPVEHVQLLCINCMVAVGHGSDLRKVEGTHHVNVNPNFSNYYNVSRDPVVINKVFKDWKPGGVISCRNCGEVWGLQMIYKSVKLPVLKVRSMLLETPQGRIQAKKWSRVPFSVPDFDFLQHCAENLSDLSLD
Nature of the data set: native gel or EMSA.

Data set [5] deals with T5, LGP2 (UniProt Q96C10 1-678).
T5 sequence: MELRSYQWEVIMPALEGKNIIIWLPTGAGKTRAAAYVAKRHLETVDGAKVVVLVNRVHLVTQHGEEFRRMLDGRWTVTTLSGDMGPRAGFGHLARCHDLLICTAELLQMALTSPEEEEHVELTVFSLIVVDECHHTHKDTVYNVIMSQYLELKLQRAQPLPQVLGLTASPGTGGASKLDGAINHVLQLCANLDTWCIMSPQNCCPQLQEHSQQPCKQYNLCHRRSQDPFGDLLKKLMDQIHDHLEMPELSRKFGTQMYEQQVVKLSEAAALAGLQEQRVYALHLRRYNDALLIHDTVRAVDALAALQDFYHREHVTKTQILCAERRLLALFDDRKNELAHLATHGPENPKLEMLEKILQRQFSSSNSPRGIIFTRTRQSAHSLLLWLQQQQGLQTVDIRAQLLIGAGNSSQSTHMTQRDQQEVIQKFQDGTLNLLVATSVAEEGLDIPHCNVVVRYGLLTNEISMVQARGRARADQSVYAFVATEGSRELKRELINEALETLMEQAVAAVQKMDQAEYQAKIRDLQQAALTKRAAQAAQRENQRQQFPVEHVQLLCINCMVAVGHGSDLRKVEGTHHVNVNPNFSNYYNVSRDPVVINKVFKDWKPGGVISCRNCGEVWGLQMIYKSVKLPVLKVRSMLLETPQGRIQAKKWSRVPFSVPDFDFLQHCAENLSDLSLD
The data set can be described thus: EMSA.

B1: TRIM65 (natural protein, human, UniProt Q6PJ69 1-517, looked up)
chain: MAAQLLEEKLTCAICLGLYQDPVTLPCGHNFCGACIRDWWDRCGKACPECREPFPDGAELRRNVALSGVLEVVRAGPARDPGPDPGPGPDPAARCPRHGRPLELFCRTEGRCVCSVCTVRECRLHERALLDAERLKREAQLRASLEVTQQQATQAEGQLLELRKQSSQIQNSACILASWVSGKFSSLLQALEIQHTTALRSIEVAKTQALAQARDEEQRLRVHLEAVARHGCRIRELLEQVDEQTFLQESQLLQPPGPLGPLTPLQWDEDQQLGDLKQLLSRLCGLLLEEGSHPGAPAKPVDLAPVEAPGPLAPVPSTVCPLRRKLWQNYRNLTFDPVSANRHFYLSRQDQQVKHCRQSRGPGGPGSFELWQVQCAQSFQAGHHYWEVRASDHSVTLGVSYPQLPRCRLGPHTDNIGRGPCSWGLCVQEDSLQAWHNGEAQRLPGVSGRLLGMDLDLASGCLTFYSLEPQTQPLYTFHALFNQPLTPVFWLLEGRTLTLCHQPGAVFPLGPQEEVLS
B1: the binding result in data set [1], in data set [2] and in data set [3] was “binds” throughout.

B2: GST-TRIM14^PSpry (domain or fragment, human, UniProt Q14142 238-442, looked up)
chain: QLSDPSSTKPGTLLKTSPSPERSLLLKYARTPTLDPDTMHARLRLSADRLTVRCGLLGSLGPVPVLRFDALWQVLARDCFATGRHYWEVDVQEAGAGWWVGAAYASLRRRGASAAARLGCNRQSWCLKRYDLEYWAFHDGQRSRLRPRDDLDRLGVFLDYEAGVLAFYDVTGGMSHLHTFRATFQEPLYPALRLWEGAISIPRLP
In the case of B2, the binding result in data set [4] is recorded as “binds”.

B3: 15 bp dsRNA (dsRNA)
RNA 1: AGGGCCCGGGAUGCU
RNA 2: AGCAUCCCGGGCCCU
For the molecule B3, in data set [5], the binding result is “binds”.
